These results are taken from US9920082B2, “Water-soluble complexing agents and corresponding lanthanide complexes” (CISBIO BIOASSAYS, priority 2013, dated 2018).

Data set [1] is described as follows: Determination of Log P (octanol/water partition coefficient) of europium complexes. Format: physicochemical. As to conditions: water/octanol mixtures 2:1, 1:1, 1:2, about 2 μM, ±20%. From the text:
Log P is a measure of the differential solubility of chemical compounds in two solvents (octanol/water partition coefficient). Log P is equal to the logarithm of the ratio of the concentrations of the substance under investigation in octanol and in water. Log P=Log(Coct/Cwater). This value ascertains the hydrophilic or hydrophobic (lipophilic) character of a molecule. In fact, if Log P is positive and very high, this expresses the fact that the molecule considered is far more soluble in octanol than in water, which reflects its lipophilic character, and vice versa. Zero or negative Log P signifies that the molecule is of a hydrophilic character.
Three equimolar solutions of europium complex were prepared in methanol. The solvent was removed under reduced pressure and the solid that remained was dissolved and stirred for 24 h in a water/octanol mixture (2:1, 1:1, 1:2), (0.9 mL) giving a total concentration of about 2 μM. After equilibration, an emission spectrum of each phase was recorded in methanol (50 μL of solution in 1 mL of methanol). For each mixture, the value of log P was calculated using the following equation: […]

Data set [2] can be described thus: Photophysical properties of the complexes (λ max, quantum yield, life-time). Format: physicochemical. As to conditions: solvent MeOH. From the text: The photophysical characteristics of some complexes are described in Table 3. […] The values of the quantum yields (Φcm) must be considered to have a margin of error of ±15%. All these complexes have quantum yields above 10%, without adding potassium fluorides. The life-times (τ0) are at least 0.7 ms, which is favorable for FRET experiments. Finally, the complexes comprising solubilizer groups of the sulfonate or carboxylate type are highly soluble in aqueous biological buffers. The presence of charges makes complexes water-soluble that were not so initially.

Consider `COc1ccc(C#Cc2cc(CN3CCN(Cc4cc(C#Cc5ccc(OC)cc5)cc(P(C)(=O)O)n4)CCN(Cc4cc(C#Cc5ccc(OCC(=O)NCC(=O)N[C@@H](CCCNC(=N)N)C(=O)N[C@@H](CCCNC(=N)N)C(=O)N[C@@H](CCCNC(=N)N)C(=O)N[C@@H](CCCNC(=N)N)C(=O)N[C@@H](CCCNC(=N)N)C(=O)N[C@@H](CCCNC(=N)N)C(=O)N[C@@H](CCCNC(=N)N)C(=O)O)cc5)cc(P(C)(=O)O)n4)CC3)nc(P(C)(=O)O)c2)cc1` [Compound 89], for which the logP in data set [1] stood at 0.3. For the same compound, in data set [2], the λ max was 330 nm and the τ0 was found to be 1.12 ms. The compound further yielded a Φem in data set [2] (margin of error ±15%) of 50%.
